Laboratory results: publication PMC10199079, “ERK and USP5 govern PD-1 homeostasis via deubiquitination to modulate tumor immunotherapy” (Nature Communications, 2023)

How the values were obtained:
USP5 [1] = molecular target: USP5 (UniProt P45974); assay: GST-USP5 pull-down from cell lysate; details: reference: PD-1-cHA wild type lysate; sites T234
USP5 [2] = molecular target: USP5 (UniProt P45974); assay: anti-HA co-immunoprecipitation, immunoblot; details: reference: PD-1 wild type; sites T234
USP5 [3] = molecular target: USP5 (UniProt P45974); assay: GST pull-down with purified His-USP5; details: reference: GST-PD-1 (192-288) wild type, ERK1-treated; sites T234
USP5 UBA1/2 domains = USP5 UBA1/2 domains (UniProt P45974); assay: biotin-peptide streptavidin pull-down; details: reference: unphosphorylated PD-1 peptide; sites T234
USP5 [4] = molecular target: USP5 (UniProt P45974); assay: biotin-peptide streptavidin pull-down; details: reference: unphosphorylated PD-1 peptide; sites T234
His-USP5 = molecular target: T1, His-USP5 (human, UniProt P45974 1-858); assay: pull-down; bacterially purified GST-PD-1 (192-288) phosphorylated by ERK1 in vitro, then GST pull-down with purified recombinant His-USP5, immunoblot; details: both partners purified
T1 construct: recombinant human USP5, His-tagged; also called recombinant human USP5 protein; purified recombinant His-USP5; source: bought: Sino biological (12772-H08B), purified recombinant USP5 from baculovirus-insect cells
T1 sequence (looked up): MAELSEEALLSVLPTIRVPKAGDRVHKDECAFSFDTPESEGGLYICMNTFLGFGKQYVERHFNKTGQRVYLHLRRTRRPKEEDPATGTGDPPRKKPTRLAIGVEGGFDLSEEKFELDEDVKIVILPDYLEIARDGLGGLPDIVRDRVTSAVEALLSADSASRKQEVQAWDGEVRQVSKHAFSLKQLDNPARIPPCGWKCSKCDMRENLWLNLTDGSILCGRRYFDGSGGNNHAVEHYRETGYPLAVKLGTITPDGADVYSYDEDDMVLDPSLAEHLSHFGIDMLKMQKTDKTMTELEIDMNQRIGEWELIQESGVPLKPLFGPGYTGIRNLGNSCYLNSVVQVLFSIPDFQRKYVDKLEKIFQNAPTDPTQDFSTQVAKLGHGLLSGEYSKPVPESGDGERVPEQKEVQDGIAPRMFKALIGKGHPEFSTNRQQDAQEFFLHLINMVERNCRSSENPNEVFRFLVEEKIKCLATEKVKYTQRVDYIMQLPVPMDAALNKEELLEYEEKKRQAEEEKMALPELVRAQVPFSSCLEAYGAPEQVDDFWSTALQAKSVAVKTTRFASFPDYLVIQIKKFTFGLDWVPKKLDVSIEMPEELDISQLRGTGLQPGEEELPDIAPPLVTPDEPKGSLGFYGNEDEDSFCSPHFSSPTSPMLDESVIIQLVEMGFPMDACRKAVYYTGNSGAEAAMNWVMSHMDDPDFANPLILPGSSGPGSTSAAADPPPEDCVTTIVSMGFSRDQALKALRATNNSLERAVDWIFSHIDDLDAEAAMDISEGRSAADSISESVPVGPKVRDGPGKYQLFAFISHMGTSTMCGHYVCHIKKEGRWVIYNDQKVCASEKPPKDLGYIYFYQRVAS

For “PD-1 (from UniProt Q15116) PD-1-cHA T234A lysate”, the “binding against the reference” value (USP5 [1]) was “weaker”.

With PD-1 (from UniProt Q15116) PD-1 T234A the “binding against the reference” value (USP5 [2]) was “weaker”.

With “PD-1 cytoplasmic region, 192-288 (from UniProt Q15116) GST-PD-1 (192-288) T234A, ERK1-treated” the “binding against the reference” value (USP5 [3]) was “weaker”.

“PD-1 (from UniProt Q15116) pT234 PD-1 peptide” was tested, and the “binding against the reference” value (USP5 UBA1/2 domains) was “gained” and the “binding against the reference” value (USP5 [4]) was “gained”.

B1: ERK1-phosphorylated GST-PD-1 (192-288) (domain or fragment, human, UniProt Q15116 192-288, looked up)
chain: CSRAARGTIGARRTGQPLKEDPSAVPVFSVDYGELDFQWREKTPEPPVPCVPEQTEYATIVFPSGMGTSSPARRGSADGPRSAQPLRPEDGHCSWPL
modifications: phosphorylated by ERK1 in vitro (the paper maps the ERK site to Thr234)
notes: source: E. coli BL21, purified, then phosphorylated by ERK1 in vitro
B1: binds (His-USP5).
